Measured values reported in the nanobody polyreactivity screen of Harvey et al. (2022).

Assay: yeast display, Sf9 membrane polyspecificity reagent, FACS + sequencing; frameworks hold sequencing errors
In short: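 Galactose induction of a Saccharomyces cerevisiae BJ5465 synthetic nanobody display library ran 36–48 hours. The cells were then stained for 1 hour at 4 °C with 10% biotinylated, detergent-solubilized Sf9 membrane reagent, pulled down on streptavidin microbeads and FACS-sorted into low and high (top ~1%) gates on expression and reagent-binding fluorescence. Labels for polyreactivity follow the gate of origin.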

Sequence | polyreactivity (PSR sort gate)
QVQLVESGGGLVQAGGSLRLSCAASGSTFNTNAMGWYRQAPGKERELVAAITWRTGSTYYADSVKGRFTISRDNAKNTVYLQMNSLKPEDTAVYYCAADYFWYRSGRYHYWGQVTQVTVSS | high polyreactivity
QVQLVESGGGLVQAGGSLRLSCAASGRTFAPYVMGWYRQAPGKERELVAAITWSGGSTYYADSVKGRFTISRDNAKNTVYLQMNSLKPEDTALYYCAVKGAGGPKYDYWGQGTQVTVSS | high polyreactivity
QVQLVESGGGLVQAGGSLRLSCAASGISFSANAMGWYRQAPGKEREWVAAISASGGSTRYADSVKGRFTISRDNAKNTVYLQMNSLKPEDTAVYYCATRRTSRSKWRHYWGQGTQVTVSS | high polyreactivity
QFQLVESGGGLVQAGGSLRLSCAASGFTFRRVTAIGWYRQAPGKERELVAGINSGDITYYADSVKGRFTFSRDNAKNTVYLQMNSLIPEDTAVYYCAARVVYGYGHNDYWGQGTQVTVSS | low polyreactivity
QVQLVESGGGLVQAGGSLRLSCAASGSTIGKNVMGWYRQAPGKEREVVAAISARGGRSYYADSVKGRFTISRDIAKNTVYLQMNSLKPEDTAVYYCNTERSYTGTGRYRSSTAYGYWGQGTQVTVSS | high polyreactivity
QVQLVESGGGLVQAGGSLRLSCAASGSTLRSKAMGWYRQAQGKERELVASISSGGSTSYADSVKGRFTISRDNAKNTVYLQMNSLKPEDTAVYYCAADNSVGSYDYWGQGTQVTVSS | low polyreactivity
QVQLVESGGGLVQAGGSLRLSCAASGSTFQTYAMGWYRQAPGKERELLAAINWRSGSTYYADSVKGRFTISRDNAKNTVYLQMNSLTPEDTAVSYCAAELDFSPGYYYLYDYWGQGTQVTVSS | low polyreactivity
QVQLVESGGGLVQAGGSLRLSCAASGFIFPVNAMGWYRQAAGKERELVAAITSSGGDTYYADSVKGRFTISRDNAKNTVYLQMNSLKPEDTAVYYCAAEYTQEQEDYDYWGQGTQLTVSS | low polyreactivity
QVQLVESGGGLVQAGGSLRLSCAASGRIFRYYVMGWYRQAPGKERELVAAITSGGSTYYADSVKGRFTISRDNAKNTVYLQMNSLKPEDTAVYYCAAETTLPIFYYTQVNYWGQGTQVTVSS | low polyreactivity
QVQLVESGGGLVQAGGSLRLSCAASGSTFTRYAMGWYRQAPGKERELVAAISGGGSTNYADSVKGRFTISRDNANNTVYLQKNSLKPEVTAVYFCAARVRTTGYSQMYYWGQGTQVTVSS | low polyreactivity
QVQLVESGGGLFQAGGSLRLSCAASGFTFTRYAMGWYRQAPGKERELVATITKRGGSTYYADSVKGRFTISRDNAKNTVYLQMNRLKPEDTAVYYCAADGASRALYDYWGQGTQVTVSS | high polyreactivity
QVQLVESGGGLVQAGGSLRLSCAASGGTFSPYAMGWYRQAPGKERELVAVIRSDVTTNYADSVKGRFTISRDNAKNTVYLQMNSLKPEDTAVYYCNVERHRVWDYQWREEDDYWGQGTQVTVSS | low polyreactivity
QVQLVESGGGLVQAGGSLRLTCAATGSILSRYAMGWYRLAPGKERELVATITRRGGSTFYADSVKGRFTISRDIAKNTVYLQMNSLKPEDTAVYYCAVGRLFWGQGTQVTVSS | low polyreactivity
QVQLVESGGGLVQEVGSLRLSCAASGSTIYWYAMGWSRQAPGKEMEIVAAISLGSGSTYYADSVKGRFTISRDNAKNTVYLQMNSLKPEDTAVYYCATRGSAWGRSYYYWGQGTQVTVSS | high polyreactivity
QVQLVESGGGLVQAGGSLRLSCAASGFIFPWYAMGWYRLAPGKERELVAIISWDTGSTYYADSVKGRFTISRDNAKNTVYLQMNSLKPEDTAVYYCVAYVCSTYSAPEYYWGQGTQVTVSS | low polyreactivity
QVQLVESGGGLVQAGGSLRLSCAASGRTFIGYAMGWYRQAPGKERELVAAITSSGGSTYYSDSVKGRFTISRDNAKNTVYLQMNSLKPEDTAVYYCAAGRHSEDNYWGQGTQVTVSS | high polyreactivity

Sequence | polyreactivity (PSR sort gate)
QVQLVESGVGLVQAGGSLRLSCASSGITFPSYTMGWYRQAPGKERELVATIRNGGSTYYADSVKGRFTISRDNAKNTVYLQMNSLKPEDTAVYYCAAVPLWDYKFFYYLLYDYWGQGTQVTVSS | low polyreactivity
QVQLVESGGGLFQAGGILRLSCAASGIIFWDNAMGWYRQAPGKERELVAAISRSGSRTYYADSVKGRFTISRDNAKNTVYLQMNSLKPEDTAVYYCARRYRARGSMYYWGQGTQVTVSS | high polyreactivity
QVQLVESGGGLVQAGGSLRLSCAASGSTFPYYALGLYRQAPGKERELVAAISRGGGITYYADSVKGRFSISRDNAKNTVYLQMNCLKPEDTAVYYCAAYTAAEQGYNYWGQGTQVTVSS | high polyreactivity
QVQLVESGGGLVQAGGSLRLSCAASGSIFIYYAMGWYRQAPGKERELVAAISWSGDRTYYADSVKGRFTISRDNAKNTVYLQMNSLKPEDTAVYYCAARVVTPSAFPRYYWGQGTQVTVSS | high polyreactivity
QVQLVESGGGLVQAGGSLRLSCAASGRTFWHNAMGWYRQEPGKERELVAAITIRGGRTYYADSVKGRFTISRDNAKNTVYLQMNSLKPEDTAVYYCAAPPFVKMDYWGQGTQVTVSS | high polyreactivity
QVQLVESGGGLVQAGGSLRLSCAASGRIFGPYTMGWYRQAPGKERELVAAISSTGGSTYYADSVKGRFTISRDNAKNTVYLQRNSLKPEDTAVYYCEYDYWGQGTQVTVSS | low polyreactivity
QVQLVESGGGLVQAGGSLRLSCAASGTIFQQYAMGWYRQAPGKERELVAAISYSGGTTYYADSVKGRFTISRDNAKNTDYLEMNSLKPEDTAVYYCAAYYPSGSYDYYWGQGTQVTVSS | low polyreactivity
QVQLVESGGALVQAGGSLRLSCAASGSTLRANAMGWYRQAPGKERELVARITSGGSTYYADSVKGRFTISRDNAKNTVYFQMNSLKPEDTAVYYCAATYKLAYRRGYWGQGTQVTVSS | high polyreactivity
QVQHVESGGGLVQAGGILRLSCAASGFTFPAYTMGWYRQAPGKERELVAAITSSGGNTYYADSVKGRFTISRDNAKNTLCLQMNSLKPEDTAVYYCATVSVRWPSNDHVRYDYWGQGTQVTVSS | low polyreactivity
QVQLQESGGGLVQAGGSLRLSCAASGIIVDADIMGWYRQAPGQERDLVASITDGGRTNYADSVKGRFTISRDNAKNTVYLQMNSLKPEDTAVYYCAAIAYPDIPTYFDYDSEYFYCGQGTQVTVSS | low polyreactivity
QVQLVESGGGLDQAGGSLRLSCSASGITFKSYAMGWYTQSPGKEREVVAAISRRGGSTYYADSVKGRFTISRDNAKNTVYLQMNSLKQEDTAVYFFAADSGREPKGPSRLTYWGQGTQVTVSS | high polyreactivity
QVQLVESGGGLVQAGGSLRLSCAASGRIISYYAMRWYRQAPGKERELVAAITSAGGTNYADSVKARFTISRDNAKNTVYLQMNSLKPEDTAVYYCAADLYDWPLAWWEYFYWGQGTQVTVSS | low polyreactivity
QVQLVESGGGLVQAGGSLRLICAVSGHIFGSNAMGWYRQAPGKERELVAAIRSSGGSTYYADSVKGRFTISRDYAKNTVYLQMNSLKPEDTAVYYCAVETLTSTSLTRMDYWGQGTQVTVSS | low polyreactivity
QVQLVESGGGLVQAGGSLRLSCAASGSIFHDYAMGWYRQEHGKERELVAVISTSGGSTYYADSVKGRFTISRDNAKNTDYLQMNSLKPEYTAVYYCNARTVGPYPSQAALEYDSGGQGTQVTVSS | low polyreactivity
QVQLVESGGGLVQAGGSLRLSCAASGFIFSWYAMGWYRQAPGKERELVAAISRSGTRTYYADSVKGRFTISRDNAKNTVYLQMNSLKPEDTAVYYCAAAAKSWLFDYWGQGTQVTVSS | high polyreactivity
QVQLVESGGGLVQAGGSLRLSCASSGRTFTYNAMGWYRQAPGKERELVAVIRYSGGTTYYADSVKGRFTISRDNAKNTVYFQMNRLIPEDTAVYYCAADSWSRSVNYYYWGQGTQVTVSS | low polyreactivity
